Source: patent publication US12668638B2, “Antibodies that bind EGFR and cMET” (Merus B.V., priority 2017, dated 2026)

Columns and labels:
[1] = system: cMET and EGFR; settings: cited from earlier work
[2] = system: tumor cell line H1975; settings: H1975 expresses the cMET ligand HGF; cited from earlier work
[3] = system: HCC827 tumor cells; test: HCC827 xenograft in NSG-hHGFki mice; format: in vivo, mouse
Excerpt: The VH of the cMET variable domain of PB19748 comprises the amino acid sequence of MF8230 (see FIG. 8). […] The VH of the EGFR variable domain of PB19748 comprises the amino acid sequence of MF8233 of FIG. 7. […] In the chosen model, HCC827 tumor cells are engrafted into immunodeficient NOD SCID gamma (NSG) human hepatocyte growth factor knock-in (hHGFki) mice, that express human HGF (ligand for cMET) in place of endogenous mouse HGF. […] They have no T or B cells, lack functional NK cells, and are deficient in cytokine signaling, which allows for better tumor engraftment.
Prior to tumor cell engraftment, the cell cycle of HCC827 cells was boosted by culturing the cells overnight in medium supplemented with 20% fetal bovine serum (FBS) at confluency not exceeding 80%. […] The resulting tumors were measured twice each week using calipers. When the mean tumor volume reached approximately 200 mm^3, the mice were randomized into two groups (4-7 mice per group depending on tumor growth and volume) and drug treatment was started.
Tumor volume was measured twice each week using calipers, and mean tumor volume (and SEM) calculated for each group. When tumor sizes reached 1500 mm^3 mice were euthanized. Treatment was stopped after day 48, and tumor volume in surviving mice was measured up to day 62. […]
As before, tumor volume was monitored and mean tumor volume (and SEM) calculated in each group. All treatments were stopped after day 60, and tumor volume in surviving mice was measured up to day 82.
As before, tumor volume was monitored and mean tumor volume (and SEM) calculated in each group. All treatments were stopped after day 93, and tumor volume in surviving mice was measured up to day […].
In a fourth experiment the effect of a later administration of PB19478 was tested.
On day 51 when the mean tumor volume had clearly passed the 500 mm 3 mark the mice were randomized into two groups. […] As before, tumor volume was monitored and mean tumor volume (and SEM) calculated in each group. All treatments were stopped after day 72.

In the case of “JNJ-61186372: bispecific cMETxEGFR antibody produced by controlled Fab-arm exchange (Moores et al 2016)”, the “affinity imbalance, greater affinity for cMET than EGFR” value [1] is listed as “approximately 40 ×” and the activity in vivo [2] is listed as “active in vivo”.

With `C#Cc1cccc(Nc2ncnc3cc(OCCOC)c(OCCOC)cc23)c1` [erlotinib, reference compound] the anti-tumor response ([3]; mouse, in vivo) was “able to induce an anti-tumor response”.

B1: LY2875358: humanized monoclonal cMET antibody emibetuzumab (antibody, chains of the INN, looked up, V domains shown)
VH: QVQLVQSGAEVKKPGASVKVSCKASGYTFTDYYMHWVRQAPGQGLEWMGRVNPNRRGTTYNQKFEGRVTMTTDTSTSTAYMELRSLRSDDTAVYYCARANWLDYWGQGTTVTVSS
VL: DIQMTQSPSSLSASVGDRVTITCSVSSSVSSIYLHWYQQKPGKAPKLLIYSTSNLASGVPSRFSGSGSGTDFTLTISSLQPEDFATYYCQVYSGYPLTFGGGTKVEIK
With B1 the anti-tumor response ([3]; antibody 25 mg/kg weekly i.p. plus erlotinib 6 mg/kg daily gavage) was “less effective than PB8532”, the anti-tumor response ([3]; antibody 25 mg/kg weekly i.p. plus erlotinib 6 mg/kg daily gavage, listed as LY3875358) was “less effective” and the anti-tumor response ([3]; antibody 25 mg/kg weekly i.p. plus vehicle (without erlotinib)) was “less effective than PB8532”. For the same molecule, the anti-tumor response ([3]; antibody 25 mg/kg weekly i.p. plus vehicle (without erlotinib), listed as LY3875358) was “less effective”.
